According to patent US20120021988A1, “METHODS FOR TREATING IMMUNE THROMBOCYTOPENIA” (priority 2007, published 2012):

B1: Peptide … (SEQ ID NO:20) (peptide)
peptide: APPDCAWHLGELVWCT

Legend:
FcγIIa (R131 allele) = FcγIIa (R131 allele) (UniProt P12318); assay: reverse ELISA, PAP on FcγIIa (R131 allele)-coated plate without competitor
[1] = molecular target: FcγIIa (His 131 allele aka H161) (UniProt P12318); assay: reverse ELISA (repeat), PAP on FcγIIa (H131 allele)-coated plate without competitor
[2] = molecular target: human C1q (Quidel Corp.) (human) (UniProt P02745); assay: reverse ELISA, PAP on C1q-coated plate without competitor
FcγIIb [3] = molecular target: FcγIIb (UniProt P31994); assay: reverse ELISA (repeat), PAP on FcγIIb/c-coated plate without competitor
FcγIIIa = FcγIIIa (UniProt P08637); assay: reverse ELISA, PAP on FcγIIIa-coated plate without competitor
FcγI = FcγI (UniProt P12314); assay: reverse ELISA (repeat), PAP on Fcγ1-coated plate without competitor
FCγIIIb (NA2) = FCγIIIb (NA2) (UniProt O75015); assay: reverse ELISA (repeat), PAP on FcγIIIb (NA2)-coated plate without competitor
FcγIIb [4] = molecular target: FcγIIb (UniProt P31994); assay: reverse ELISA, PAP on FcγIIb-coated plate without competitor
[5] = molecular target: PAP complex: preformed immune complex of peroxidase and rabbit anti-peroxidase IgG (horseradish) (UniProt P00433); assay: reverse ELISA competition: PAP pre-incubated with peptide, then on plate coated with FcγIIIa; signal is PAP left bound to the receptor
[6] = molecular target: PAP complex: preformed immune complex of peroxidase and rabbit anti-peroxidase IgG (horseradish) (UniProt P00433); assay: reverse ELISA competition (repeat): inhibition by the peptide of PAP binding to immobilised FcγIIa (H131 allele)
[7] = molecular target: PAP complex: preformed immune complex of peroxidase and rabbit anti-peroxidase IgG (horseradish) (UniProt P00433); assay: reverse ELISA competition: PAP pre-incubated with peptide, then on plate coated with FcγIIb; signal is PAP left bound to the receptor
[8] = molecular target: PAP complex: preformed immune complex of peroxidase and rabbit anti-peroxidase IgG (horseradish) (UniProt P00433); assay: reverse ELISA competition (repeat): inhibition by the peptide of PAP binding to immobilised FcγIIb/c
[9] = molecular target: PAP complex: preformed immune complex of peroxidase and rabbit anti-peroxidase IgG (horseradish) (UniProt P00433); assay: reverse ELISA competition (repeat): inhibition by the peptide of PAP binding to immobilised Fcγ1
[10] = molecular target: PAP complex: preformed immune complex of peroxidase and rabbit anti-peroxidase IgG (horseradish) (UniProt P00433); assay: reverse ELISA competition: PAP pre-incubated with peptide, then on C1q-coated plate; signal is PAP left bound to immobilised human C1q (lower = more inhibition)
[11] = molecular target: PAP complex: preformed immune complex of peroxidase and rabbit anti-peroxidase IgG (horseradish) (UniProt P00433); assay: reverse ELISA competition (repeat): inhibition by the peptide of PAP binding to immobilised FcγIIIb (NA2)
[12] = molecular target: PAP complex: preformed immune complex of peroxidase and rabbit anti-peroxidase IgG (horseradish) (UniProt P00433); assay: reverse ELISA competition (repeat): PAP pre-incubated with peptide, then on plate coated with FcγIIIb (NA2); signal is PAP left bound to the receptor
[13] = molecular target: PAP complex: preformed immune complex of peroxidase and rabbit anti-peroxidase IgG (horseradish) (UniProt P00433); assay: reverse ELISA competition: PAP pre-incubated with peptide, then on plate coated with FcγIIa (R131 allele); signal is PAP left bound to the receptor
[14] = molecular target: PAP complex: preformed immune complex of peroxidase and rabbit anti-peroxidase IgG (horseradish) (UniProt P00433); assay: reverse ELISA competition (repeat): PAP pre-incubated with peptide, then on plate coated with FcγIIa (H131 allele); signal is PAP left bound to the receptor
[15] = molecular target: PAP complex: preformed immune complex of peroxidase and rabbit anti-peroxidase IgG (horseradish) (UniProt P00433); assay: reverse ELISA competition (repeat): PAP pre-incubated with peptide, then on plate coated with FcγIIb/c; signal is PAP left bound to the receptor
[16] = molecular target: PAP complex: preformed immune complex of peroxidase and rabbit anti-peroxidase IgG (horseradish) (UniProt P00433); assay: reverse ELISA competition (repeat): PAP pre-incubated with peptide, then on plate coated with Fcγ1; signal is PAP left bound to the receptor

Sequence of UniProt P31994 (P31994 46-217 limits assumed): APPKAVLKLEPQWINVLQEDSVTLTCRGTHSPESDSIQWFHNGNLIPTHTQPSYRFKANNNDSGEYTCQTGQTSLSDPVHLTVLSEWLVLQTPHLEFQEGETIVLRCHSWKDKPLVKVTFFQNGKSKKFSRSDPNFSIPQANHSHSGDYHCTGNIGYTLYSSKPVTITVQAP
Sequence of UniProt O75015 (O75015 17-200 N65S limits assumed): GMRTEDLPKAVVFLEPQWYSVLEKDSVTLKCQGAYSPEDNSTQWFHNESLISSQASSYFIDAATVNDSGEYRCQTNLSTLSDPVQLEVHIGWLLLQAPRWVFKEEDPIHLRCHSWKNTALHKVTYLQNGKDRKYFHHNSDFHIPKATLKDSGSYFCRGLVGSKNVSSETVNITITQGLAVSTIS
Sequence of UniProt P12314 (P12314 16-288 limits assumed): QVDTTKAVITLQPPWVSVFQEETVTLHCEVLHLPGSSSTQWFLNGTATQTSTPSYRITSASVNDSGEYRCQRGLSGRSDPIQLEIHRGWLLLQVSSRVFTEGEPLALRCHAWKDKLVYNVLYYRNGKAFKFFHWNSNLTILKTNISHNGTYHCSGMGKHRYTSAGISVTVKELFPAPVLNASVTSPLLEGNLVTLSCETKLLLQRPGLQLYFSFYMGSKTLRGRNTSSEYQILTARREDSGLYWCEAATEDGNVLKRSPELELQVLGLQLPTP
Sequence of UniProt P08637 (P08637 17-208 limits assumed): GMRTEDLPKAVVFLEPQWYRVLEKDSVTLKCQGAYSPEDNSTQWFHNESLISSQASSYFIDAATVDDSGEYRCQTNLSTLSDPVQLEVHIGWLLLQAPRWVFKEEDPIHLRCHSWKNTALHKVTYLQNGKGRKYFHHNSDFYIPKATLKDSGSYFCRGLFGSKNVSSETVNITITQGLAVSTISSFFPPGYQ
Sequence of UniProt P02745 (P02745 23-245 limits assumed, chain 1 of 3): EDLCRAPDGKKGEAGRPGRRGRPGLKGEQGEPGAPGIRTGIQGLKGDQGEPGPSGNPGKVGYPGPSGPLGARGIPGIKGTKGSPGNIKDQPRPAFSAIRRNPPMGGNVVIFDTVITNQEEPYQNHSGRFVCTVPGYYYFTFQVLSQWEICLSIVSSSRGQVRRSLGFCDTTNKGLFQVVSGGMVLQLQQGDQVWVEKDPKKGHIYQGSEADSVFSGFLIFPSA
Sequence of UniProt P02745 (P02746 28-253 limits assumed, chain 2 of 3, further chain): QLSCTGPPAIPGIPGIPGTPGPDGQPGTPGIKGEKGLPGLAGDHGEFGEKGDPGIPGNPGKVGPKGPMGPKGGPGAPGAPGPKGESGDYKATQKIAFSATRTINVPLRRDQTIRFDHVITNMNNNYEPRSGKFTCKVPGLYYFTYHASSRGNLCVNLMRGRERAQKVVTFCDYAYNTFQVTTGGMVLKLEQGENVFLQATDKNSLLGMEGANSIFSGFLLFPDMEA
Sequence of UniProt P02745 (P02747 29-245 limits assumed, chain 3 of 3, further chain): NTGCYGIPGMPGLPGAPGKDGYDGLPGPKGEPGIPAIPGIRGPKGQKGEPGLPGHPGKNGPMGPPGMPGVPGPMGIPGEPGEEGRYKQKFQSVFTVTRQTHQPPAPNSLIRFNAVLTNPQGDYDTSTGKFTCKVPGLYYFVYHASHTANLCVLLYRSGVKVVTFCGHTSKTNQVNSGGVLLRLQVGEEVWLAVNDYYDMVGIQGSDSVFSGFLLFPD

| Molecule | OD405 (FcγIIa (R131 allele)) | OD 405 nm [1] | OD 405 nm [2] | OD 405 nm (FcγIIb [3]) | OD405 (FcγIIIa) | OD 405 nm (FcγI) | OD 405 nm (FCγIIIb (NA2)) | OD405 (FcγIIb [4]) | OD405 [5] | % inhibition of IC binding [6] | OD405 [7] | % inhibition of IC binding [8] | % inhibition of IC binding [9] | OD 405 nm [10] | % inhibition of IC binding [11] | OD 405 nm [12] | OD405 [13] | OD 405 nm [14] | OD 405 nm [15] | OD 405 nm [16] |
| --- | --- | --- | --- | --- | --- | --- | --- | --- | --- | --- | --- | --- | --- | --- | --- | --- | --- | --- | --- | --- |
| PAP complex: preformed immune complex of peroxidase and rabbit anti-peroxidase IgG (from UniProt P00433 31-338) | 1.6 OD405 | 3.51 OD 405 nm | 2.35 OD 405 nm | 2.22 OD 405 nm | 1.59 OD405 | 2.33 OD 405 nm | 3.06 OD 405 nm | 1.39 OD405 | – | – | – | – | – | – | – | – | – | – | – | – |
| B1 | – | – | – | – | – | – | – | – | 0.67 OD405 | 94% | 0.496 OD405 | 88% | 89% | 0.389 OD 405 nm | 91% | 0.266 OD 405 nm | 0.509 OD405 | 0.209 OD 405 nm | 0.266 OD 405 nm | 0.264 OD 405 nm |
